The values below are quoted from earlier work in article PMC6935268.

The target in the series is CD80 (Homo sapiens) (UniProt P33681).
Chain of UniProt P33681 (P33681 35-242): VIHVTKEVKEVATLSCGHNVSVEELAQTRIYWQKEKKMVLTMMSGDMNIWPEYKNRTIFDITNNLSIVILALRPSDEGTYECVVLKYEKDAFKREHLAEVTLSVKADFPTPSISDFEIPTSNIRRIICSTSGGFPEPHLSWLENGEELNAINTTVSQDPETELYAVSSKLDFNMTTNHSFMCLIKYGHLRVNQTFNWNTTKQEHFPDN

As for PD-L1 (from UniProt Q9NZQ7), the Kd is 17.8 µM.

The term Kd denotes the constant that tells how readily two partners part at equilibrium.
